Measured values published in a protein production outcome set (Wang et al. 2014).

Test: label from the status in PepcDB records

Row | Sequence | protein production
1 | EADYKQATALELATLVREKKVTSEELVKIALAITKRENPTLNAVITLREEAALTEAKALQDTGQPFLGVPLLLKGLGQSLKGESNTNGFGFLQDQVAGGTSTFVKALQNAGFIIIGQTNYPELGWKNISDSKLYGVSVNPWNPNHYSGGSSGGAGASVAAAFVPIASGSDAGGSIRIPASWTGTVGLKPSRGVIIGNSNSAKGQTVHFGLSRTVADTNALFETLLTKKDLPAGHLSQAQPIAYTTESPAGTPISAEAKEAVAEAVAFLKDQGYTLVEVKHPVDGERLMKNYYTVAAGSAGIADFMARQKLKRPLERNDVELLTWALFQTGKNITSEETTAAWTDIALQAQAMDEFYQQYPILLTPTTAATAPSIDNPLLKPEHAAQMEKIDQLSPAEQKQLIYDQWLTAFTYTPFTQQANLFGHPALSVPTYVSKEGLPLGIQFNSALNEDRTLLQLGALFENNHK | failed
2 | MSLSQNAPKSKGIKREELKKQYEDVEDEEEIGSDDDLTRGKRRKTEKEKQKLEESELVEMKKLENLIFGSLYSPVTFGKEEEEDGSALFHVDRSAVRQIPDYEDDGDDDEELSDEENGQVVAIRKGEAAWEDEEEKQINVDIASVNRLRKLRKEENEGLISGSEYIARLRAHHAKLNPGTDWARPDSQIVDGESSDDDDTQDGGVDDILRTNEDLVVKSRGNKLCAGRLEYSKLVDANAADPSNGPINSVHFHQNAQLLLTAGLDRRLRFFQIDGKRNTKIQSIFLEDCPIRKAAFLPNGSQVIVSGRRKFFYSFDLEKAKFDKIGPLVGREEKSLEYFEVSQDSNTIAFVGNEGYILLVSTKTKELIGTLKMNGSVRSLAFSEDGKHLLSSGGDGQVYVWDLRTMKCLYKGVDEGSTCGTSLCSSLNGALFASGTDRGIVNIYKKSEFVGGKRKPIKTVDNLTSKIDFMKFNHDAQILAIVSTMNKNSVKLVHVPSLTVFSNWPPPNSTMHYPRCLDFSPGSGFMAMGNAAGKVLLYKLHHYQNA | failed
3 | MTDNPFATPTAPVQPPAREVPATTQPYAFIAVLALVTCLSFAVSLGIQWYNDIGEIRQRFSEHLQLMAPHWFTGLVFYAAANLLVLHAYREKRQLVEFRPLALLLIGYGLLNLVCGMLAGIGLAPLTLPFYQWVTAQSSYGVWLMAFNEAMSWVYLLLGSLLPLGLVLLGSRVNSPRLAEGEEARVAAWQVALGAALCFATLCFKLMQFLPYALLRYDEPWLYGLYLSGVALPAALLFGAVCTRLPARLQRFAAGRALLLAVVAMLLWSVALLAVGGGLALLMILGLAPAGIGYTLLVALLGVGLLALLWPIGRLATRWCYADQLAA | failed
4 | MDFSVLLASLGISILELSEASAVAVIFQGIYKNSKPFLYAIAGILIVLVPVFTLGQYIVLLPINYVLLVAAVILAYFGYKLLRSARRSFKGSKKKHEEKEEGIMTVFVVSATEALEAGLVILALIPQSFSSALLGTGIAVIIVIALTIALRSQIMKIRVPHLKFVLSALLFGLATLFVAEALVDIDEVFLPLFFVIYLGVNYLVIKL | failed
5 | MRPGSVKRLYGVNTVQYAPCFMRDHRRDGIPHGNLPLELDAFVGRGAQLAELARTLDSARLVTLTGSGGVGKSRLAARAAARRAPRGGVWRVQLAPVRDEEFVDYAVVEALGLTDHTTRLPRETLLAHLAERELLLLLDGVEHLVDACAALVTELLGRAPGLTVLAVGRRPLGVAGERLVPLAPLGTEEAVELLTVRAGQRSVARDHDADPDADQREMRELCRRLDGIPLAIELAAGRLDALSPGQMLRRLDDRFRLLTGGDRTALPRHRTLRTAIGWSHELCTPPERLLWARLSVFAGPFDLEAAEYVCSGDGMPADDVLDVLCALLSQSVLTREESPAGVRYRMLDTVRAYGADWLAATGDADRLRRRHRDWYVGLATWCELEWFSPRQGEVAARVDAELPNLRSALEHCLDEPDGAHLGQYLAGALWFHWVGCGRLSEGRHWLEQAVRLDAEPTAGEQSRLKALWVLAYVAILQGDTVPALAALQECREEAERSANPTAAAYAEHRTGCLALVTDDLPRAETLLRSALHRYREIGELNSNVLMGQVELAMARAFQGDLPDAVRLCEDVRQVCEDHGERWARGYALYVLAYAAWSDGEPVRARELLADCLGSAHRFRDQLGSVLAVELLALVTVAEGDAAEAAVLQGAAGRMWPSVGLPLFGSAHYNAPHELCEAAAREQLGDERYEECVRHGARLGRREAVARALRRPGARASLPAPRPTAVRRAPAGARTAKPAASPTRKGGETAG | failed
6 | MMKSLGSIRRSFAPWADPASKPFISVKNVTKKFGDFTAVDDLSLNIYTREFFALLGASGCGKSTLLRMLAGFEQPTSGEIILDGQSLAGIPPYRRPVNMMFQSYALFPHMTVENNVAFGLKQDGMPKADIAERVAQMLKLVKLEKFAKRKPHQLSGGQRQRVALARSLAKRPKVLLLDEPLGALDKKLREETQFELMDLQQELGLTFVVVTHDQEEAMTMADRIAVMSHGKVVQVATPAEIYEAPNSRFVADFIGDVNIFDGKVTSAEDGYIRVETTGGIPVRMASPEKPGNGAKAAVAIRPEKIRIGRQPPAHAPVNAAEGEIWDIGYLGDMTVFHIRLKDGKVVKASSLNAVRAVEDPLGYDQQVWISFGDDAGVVLKD | failed
7 | MEKKLAPQFDNFYQSCRRYFQKLSRNKNFRSLKVYLLILTIVMVVIINPLSSNISGIVNILPTTTEKITHKSSAQQTDKQSHKTSNKAAYKTSWIGNTFGGKKWVQIQMEGIYVTPNGTVYVNSHWDEAGREVGIYKDGDVIGKADDLHGWGRLGGKAITANQKYLYVAMRQSHEGKPEDDYPPKGTTWYNVRRYDLSGKPAPFAGGRGWDKSMLIVNSKNDVTGLATKDKELYVSDPANDRLRVYNTDTMQELRSFSVPNPGAIAVDRQNNLWVVQKKKIVRYSPQGKQLAQQITDVANPSAIAFDPQGRLLVADNGKRQQVLIYNIANKPKQVGTLGDKGGIYGGTSGEVKDGKLYGITGVGTDKSGNIYVSNHGFNSTGADLRKFSSSGKLQWRLLGLQFIDNADADPDSDGRDVFTKNEHFVMDYSKNNGKEWTYKGYTLDKFRYPDDGRLHTTPTSAFVRRLGGKRLLYLSSEMMAERLLIYRFDGEIAVPCGIFGKNHLSWPPNQPKDGSWLWRDVNGDGSIQNNEYKTLGEEDGSVWGWEIDSKGDIWQAAEAGYIKHYPYQKLDNHGCPIYGQAVGGRIPMPAPFKTLTRIKYFPKQDVMYLGGYTNEHPNLDGDWGLVGTEIVRYDNWSKKRNLRWRIVLPYNHQTDPKLHIKSIDVAGDRVFAVASKKAEVYVYKATTGEALQMLTPGAEVGGESGWIDIPYGIRAFRRANGEYLVFVEENAKGKVLMYRLPG | failed
8 | MKFLGRGRELARFKEELDAARPSLVILYGRRRVGKSRFLRELGKSRKEIYFQATRVSSLLNLEQFKIEVANILGALPVLESLPSWEGVFYYIAEHTRNNPGLLITIDEFPYLLDGDPALPSILQKFWDSGAPADGGLKLILCGSSISQMQDLLAERNPLYGRQTLSLDMKQLPLTDVARFFPKYDAEAIISTYAIFGGIPHYLQLFNPDVPLKDNVVRLLLTETGTLVDEPNTLLQTELHEPGFYSSVLAAIADGCNTTSEIASRLGVKVEKITSYAAKLVALHLISNTKSLDVDEKVRNRRFRLDDSLISFWHRFVRPSLTAISGGFGEEVYRQVVAPGFSEYMGIAFEAIALEYARIHIQEKLGLPAKELGQIWGHSDFDIDVAGRLLNGEYFYGDCKWTNADIDMGHLRQLRERSERTRYGRGTAGKHFLLFSKAGFSTDLIVFAKDETRRVHLLTPNDLVRPNQ | failed
9 | MSSASSEAQRLARLALLQVVDTAAEPFFDALAAAAQAIAGTPIALVSLVDERRQWWKANIGLPGVSETPRELAFCTYTIQGDAVMEVRDAPADPRFHDNALVTDAPGIRYYAGAPIVLPDGLRMGTVCVIDQRPRALEPAQLQALQQLAKVAAEGLEQRRVMLEREAANAQLQQRLRESEAFLERTGRVAGVGGWEVDVASGTLIWSDQTCRLHDVPPGYRPSLTEAIGFYPLEARAVITEAVDACVRDGTSWDLELPLTSATGRRLWVHSTGSVEHVDGRKRLIGAVQDVTDRHRAVDALAASERKFRKMFQYSLGLICTHDMHGRLVSINPAAARSLGRSVEQMEGRSLVEFVRPERHAALRGYLSRMVLDGQDSGVIELVAGDGSLRHWQYHNVLDVESDATVVLAHAQDITNQYRQEKQLLEWSFTDPLTNCYNRRFLDELDKRDPAVRWGCIVVDLDKFKLVNDTHGHQRGDEVLVQMAWFLNQPLRTQDRLVRLGGDEFLVLLHQASQTQLDALKRDYMGASEDAPIRFTLGTALRQDGEALAAVVDRADHSLYSLRRARRGTGTSDQR | failed
10 | MEVSKIRIHDLPEEERPRERLIKNGPESLSNAELLGIVLRTGSREENVISLCSRILMEYNIKQLSLANVSKLMQVNGIGKAKAAQIAAVFELARRLETFVEEPKRKISSPKDVYTLMYPKMREQKKEKFITLYLDTKNQILKEEVVSIGSLNASIVHPREVFKSALMESSASVIMVHNHPSGDPSPSREDIMVTEKLVEGGKLLGIDILDHIIIGDGRYVSLKDEGFVK | not failed
11 | MFNLYPPHRSLEGAAILGDNCSRIFNVSDTVVNTLHIVMQSHANPLGILHGGNMIRWLVDAGTLAASKVVVGYPLLAGIDFIYLGKPVGVGETIAVFAWSPYAGRSSVEVGLAAYSLGRPGGQGLERVSAAHMTFVNVKPHEGVLRPHPHGSCIEAVDREEERLLEASMKMREARVERLRGRELLRQTVYSLRESGTEPFEVESYRIVNPIDSVAYDVMHAGAMLYIVDELGAVAALRSSAGIVVTGFVGPADFVAPMRVGEVLRMWARTSYVGRSSVEVLIRSASGFMGGGEARLTSEAYLTYISLDSSGRPLEINAPRGWEPEEQALRRAEWRRRLIRSIDSGETALEPPRRFLEMLMRGRVG | failed
12 | MNGVLEQHWTGEGRRLRAAPAVLCLLLGTALAGCGDMNRFQTAAAPPTVAMPKPKPAVAQTPATEKEHERILASYGGTYDDPRLESLVTKTVDRLVAASDRPDQGYRITILNSGAVNAFALPNGQLYVTRGLLALASDTSELSSVLSHEMAHVLSKHAAMREDQARQAAIVTRVVTDMSNDPDLTALALAKTKLTMASFSRNQEFEADGIGVGISARAHFDPYGAARFLSAMERNAELKAGKTSLDPRAQDFTSSHPATPERVQNAQTIARQYVAPEGGERDRESYLAAIDNLVYGEDPERGFCPRPAFPASEARLHLPGAGQFHARQHRAGGDRRARRRLAGDALRRGAGAGRAVARRLPQFGLDGRRREGVHGRHHHQRLPGRVRHRQGRPVAVQGLCAAFRQRRLPLHLRGTAEVDRERAQCARDRQLVPSPDPRRDPGRPPAAHQGDHRAARRHRGIALPPHGRRRSPRRALPRAQRPRSQRAGEGEGSREGRGGLTLREARVIPGRLARTRDLEPRRHCRRVGKA | failed
13 | IESIPMPILYKNMEGSYLGCNSKFLELSGKSREEVIGFRVGDLLDKKSAMEIEECERHLKEKGECPSHDIRFVDHRGEECFIRVYKTLLTNNFDEPVGILGFFVDMS | failed
14 | MIVAVESLDTSKKRKLHAEESDLLPLPKHFCSEHQASLVNSSCPSSVIDYAECSYAMENTKTSDEASSSASFTGPSLYMFKDSIYSTGSSSSGYAATSSIEQCFSKVDHKTQEDTQDFTHMEFIYHDSEFAVEDLQEVLNPVESYILSSARWSVSNQDSKEATTKPTIDQEFEQYFSTLMM | failed
15 | MAAKTMDFAGPAVSTGLGGLGPTRVSGAALMATLLFLGAPLLFAGNMLAARMMQGVLPPFTLASARWALAALVLLPFVRRELFGQRRAAPGRWRALVLPAVLGGALSVGPQYWAAHFTSAGNIALVFAMTPLLVALLDRLAGGARLGAPALAGMGLAIAGIATASFQGSLARLLAFQINPGDLLAGLAALAWAGYTVATRRPRAGLSGLALLWGVAAGGALTLAPAAAVEWLVLGVPSLSREAVLGVAFLAIVPSIGAYLAYGRLIGLVGPVVAGTSMYLIPLYALALGAMVLGEALGRYHLAAAALVIGGVALSRWRGAAKVCG | failed
16 | MGKEIEIERKTLVSKETFKRLISQLHIGEGDFKLQRNHYFETDDFQLKKQSSALRIREKEAIFTFTLKQPHPAGLLETNQTLSKQEAKLALESAHFPSGEVMDALRDLSIPISQLKHIGTLSTSRAEISYEQGILCLDHSSYLGIEDYEIEFEGTSEEHATVTFQEILKTFSISQVPTENKIQRFFSKKEKN | not failed
